# Reference: patent publication US7326551B2, “Cloning and sequencing of pyruvate decarboxylase (PDC) genes from bacteria and uses therefor” (University of Florida Research Foundation, Inc., priority 2001, dated 2008)
# Columns and labels:
# Assay in all cases: PDC activity by ADH-coupled assay, kinetic parameters for pyruvate
# [1] = substrate: CC(=O)C(=O)O; assay type: biochemical, Zymobacter palmae; conditions: other: ZpaPDC
# Method: (i) Purification of Z. palmae PDC—Z. palmae and E. coli DH5α (pJAM3440) cells were grown to stationary phase and harvested by centrifugation at 10,000×g (10 min, 4° C.). Cells (12 to 15 g wet wt) were resuspended in 6 volumes of 50 mM sodium phosphate buffer at pH 6.5 containing 1 mM TPP and 1 mM MgCl2 (buffer A) and passed through a chilled French pressure cell at 20,000 lb per in^2. Cell debris was removed by centrifugation at 16,000×g (20 min, 4° C.). Cell lysate was heated to 60° C. for 30 min, chilled on ice for 15 min, and centrifuged at 16,000×g (30 min at 4° C.) to remove denatured polypeptides. […]
# PDC Quantitation and Enzyme Activity Assay—Polypeptide concentration was determined using Bradford reagent with bovine serum albumin as the standard (BioRad). PDC activity was measured by the coupled assay with baker's yeast alcohol dehydrogenase (ADH) (Sigma-Aldrich, St. Louis, Mo.) as previously described (11). The reaction mixture contained 0.15 mM NADH, 5 mM MgCl2, 0.1 mM TPP, 5 mM pyruvate, and 10 U ADH in 50 mM sodium citrate buffer at pH 5.0 and was measured at 25° C. unless otherwise indicated. […]
# (§1) As a further comparison, the kinetic constants of all four bacterial PDC polypeptides were determined at their pH optimum as well as at pH 7.0 (Table 3). […]
# [2] = substrate: CC(=O)C(=O)O; assay type: biochemical, Zymomonas mobilis; conditions: other: ZmoPDC
# Method: All procedures were performed at room temperature and all purification buffers contained 1 mM TPP and 1 mM MgCl2 unless otherwise indicated. S. ventriculi PDC was purified from recombinant E. coli BL21-CodonPlus-RIL(pJAM419) and Rosetta (DE3)(pRARE, pJAM419) as previously described (45). Z. mobilis PDC was purified from recombinant E. coli DH5α (pLOI276) (11) using thermal treatment, Q-Sepharose, and Superdex 200 procedures as described below for the Z. palmae PDC with the exception that the Z. mobilis PDC was eluted from Q-Sepharose at 0.22 to 0.32 M NaCl.
# (§2) PDC Quantitation and Enzyme Activity Assay—Polypeptide concentration was determined using Bradford reagent with bovine serum albumin as the standard (BioRad). PDC activity was measured by the coupled assay with baker's yeast alcohol dehydrogenase (ADH) (Sigma-Aldrich, St. Louis, Mo.) as previously described (11). The reaction mixture contained 0.15 mM NADH, 5 mM MgCl2, 0.1 mM TPP, 5 mM pyruvate, and 10 U ADH in 50 mM sodium citrate buffer at pH 5.0 and was measured at 25° C. unless otherwise indicated. One unit of enzyme activity is defined as the amount of enzyme that generates 1 μmol of acetaldehyde per min.
# as §1
# [3] = substrate: CC(=O)C(=O)O; assay type: biochemical, Acetobacter pasteurianus; conditions: other: ApaPDC
# Excerpt: (ii) Purification of A. pasteurianus PDC—PDC was purified from A. pasteurianus and E. coli ER1648(pJAM304) using heat-treatment, Q-Sepharose, Superdex 200, and hydroxyapatite as described for the Z. palmae PDC with the following modifications. Cells were passed through a French pressure cell at 30,000 lb per in^2. The PDC activity, which was eluted at 0.17 to 0.26 M NaCl from the Q-Sepharose column, was pooled and concentrated by dialysis against PEG8000 prior to loading onto the Superdex 200 column.
# as §2, §1
# [4] = pH 7.0, normal Michaelis-Menten kinetics, pH 7.0, 25.0 °C
protein,measurement,setting,value
"Zymobacter palmae pyruvate decarboxylase (ZpaPDC), recombinant, wild type, SEQ ID NO:2 (Zymobacter palmae) (protein, coupled test with yeast ADH) MYTVGMYLAERLAQIGLKHHFAVAGDYNLVLLDQLLLNKDMEQVYCCNELNCGFSAEGYARARGAAAAIVTFSVGAISAMNAIGGAYAENLPVILISGSPNTNDYGTGHILHHTIGTTDYNYQLEMVKHVTCARESIVSAEEAPAKIDHVIRTALRERKPAYLEIACNVAGAECVRPGPINSLLRELEVDQTSVTAAVDAAVEWLQDRQNVVMLVGSKLRAAAAEKQAVALADRLGCAVTIMAAEKGFFPEDHPNFRGLYWGEVSSEGAQELVENADAILCLAPVFNDYATVGWNSWPKGDNVMVMDTDRVTFAGQSFEGLSLSTFAAALAEKAPSRPATTQGTQAPVLGIEAAEPNAPLTNDEMTRQIQSLITSDTTLTAETGDSWFNASRMPIPGGARVELEMQWGHIGWSVPSAFGNAVGSPERRHIMMVGDGSFQLTAQEVAQMIRYEIPVIIFLINNRGYVIEIAIHDGPYNYIKNWNYAGLIDVFNDEDGHGLGLKASTGAELEGAIKKALDNRRGPTLIECNIAQDDCTETLIAWGKRVAATNSRKPQA",Km,"[1]; pH 6.0, 25° C., normal Michaelis-Menten kinetics, pH 6.0, 25.0 °C",240 µM
same,Km,"[1]; pH 7.0, normal Michaelis-Menten kinetics, pH 7.0",710 µM
"Zymomonas mobilis pyruvate decarboxylase (ZmoPDC), recombinant, wild type, SEQ ID NO:8 (Zymomonas mobilis subsp. mobilis ZM4 = ATCC 31821) (protein, coupled test with yeast ADH) MSYTVGTYLAERLVQIGLKHHFAVAGDYNLVLLDNLLLNKNMEQVYCCNELNCGFSAEGYARAKGAAAAVVTYSVGALSAFDAIGGAYAENLPVILISGAPNNNDHAAGHVLHHALGKTDYHYQLEMAKNITAAAEAIYTPEEAPAKIDHVIKTALREKKPVYLEIACNIASMPCAAPGPASALFNDEASDEASLNAAVEETLKFIANRDKVAVLVGSKLRAAGAEEAAVKFADALGGAVATMAAAKSFFPEENPHYIGTSWGEVSYPGVEKTMKEADAVIALAPVFNDYSTTGWTDIPDPKKLVLAEPRSVVVNGVRFPSVHLKDYLTRLAQKVSKKTGALDFFKSLNAGELKKAAPADPSAPLVNAEIARQVEALLTPNTTVIAETGDSWFNAQRMKLPNGARVEYEMQWGHIGWSVPAAFGYAVGAPERRNILMVGDGSFQLTAQEVAQMVRLKLPVIIFLINNYGYTIEVMIHDGPYNNIKNWDYAGLMEVFNGNGGYDSGAGKGLKAKTGGELAEAIKVALANTDGPTLIECFIGREDCTEELVKWGKRVAAANSRKPVNKLL",Km,"[2]; pH 6.0, normal Michaelis-Menten kinetics, pH 6.0, 25.0 °C",430 µM
same,Km,[2]; [4],940 µM
"Acetobacter pasteurianus pyruvate decarboxylase (ApaPDC), recombinant, wild type, SEQ ID NO:4 (Acetobacter pasteurianus) (protein, coupled test with yeast ADH) MTYTVGMYLAERLVQIGLKHHFAVGGDYNLVLLDQLLLNKDMKQIYCCNELNCGFSAEGYARSNGAAAAVVTFSVGAISAMNALGGAYAENLPVILISGAPNSNDQGTGHILHHTIGKTDYSYQLEMARQVTCAAESITDAHSAPAKIDHVIRTALRERKPAYLDIACNIASEPCVRPGPVSSLLSEPEIDHTSLKAAVDATVALLKNRPAPVMLLGSKLRAANALAATETLADKLQCAVTIMAAAKGFFPEDHAGFRGLYWGEVSNPGVQELVETSDALLCIAPVFNDYSTVGWSGMPKGPNVILAEPDRVTVDGRAYDGFTLRAFLQALAEKAPARPASAQKSSVPTCSLTATSDEAGLTNDEIVRHINALLTSNTTLVAETGDSWFNAMRMTLAGARVELEMQWGHIGWSVPSAFGNAMGSQDRQHVVMVGDGSFQLTAQEVAQMVRYELPVIIFLINNRGYVIEIAIHDGPYNYIKNWDYAGLMEVFNAGEGHGLGLKATTPKELTEAIARAKANTRGPTLIECQIDRTDCTDMLVQWGRKVASTNARKTTLA",Km,"[3]; pH 5.0, 25° C., normal Michaelis-Menten kinetics, pH 5.0",390 µM
same,Km,[3]; [4],5100 µM
